# Experimental data as given in PMC4232046, “The Janus transcription factor HapX controls fungal adaptation to both iron starvation and iron excess” (The EMBO Journal, 2014).
# Target: the molecule itself
# Assay: SEC-MALS; static light scattering (miniDawn TREOS, Optilab T-rEX refractometer) after Superdex 200 10/300 GL; molar mass by ASTRA 6
protein,measurement,value
"Aspergillus fumigatus HapX(24–158) (domain or fragment, UniProt Q4WER3 24-158, looked up, Cloned in pMAL-c2X with an extended N-terminus including a TEV site; Theoretical mass of the dimer 31.36 kDa; also called peptide corresponding to residues 24–158 of HapX) SPSPGPGTPGSITSKEWVIPPRPKPGRKPATDTPPTKRKAQNRAAQRAFRERRAARVNELEEQIKKIEDEHEIHIAAFKEQITNLSREVEQCRSEMTWWRDRCHALEKEVSVERSAKEAIVKEFRSSLSDREAVR",stoichiometry N,2
